The values that follow are results of earlier work, collected in PMC7221163.

The target in this data set is insulin receptor (HIR) (Homo sapiens) (UniProt P06213). In words: radioreceptor assay.

Chain of insulin (P01308 90-110): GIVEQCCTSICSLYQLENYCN

In general, Kd refers to the equilibrium constant for the complex coming apart. Take insulin (from UniProt P01308): the Kd was 1.2 nM.
